This is an account of results in publication PMC6098246, “Zinc(II) binding on human wild-type ISCU and Met140 variants modulates NFS1 desulfurase activity” (Biochimie, 2018).

The target in test [1] is T1, NFS1-ISD11-ACP (SDA) complex (human | E. coli, UniProt Q9Y697 56-457; Q9HD34 1-91; P0A6A8 1-78).
T1 construct: human cysteine desulfurase NFS1, non-tagged, construct Δ1-55; human ISD11 (LYRM4), His-tagged; E. coli acyl carrier protein (ACP) of the expression host, co-purified with NFS1-ISD11; PLP was added during the purification; also called NFS1-ISD11-ACP desulfurase complex; NFS1-ISD11 complex; source: co-purified with E. coli ACP; copies: + +
Put plainly: BLI; biotinylated ISCU on streptavidin sensors, SDA 10 uM to 1.56 nM in solution; 25 °C; 50 mM HEPES pH 7.5, 200 mM NaCl, 5% glycerol, 2 mM TCEP, 5 mM DTT, 0.5 mg/mL BSA, with 300 uM EDTA (zinc-depleted ISCU); Kd from response vs. [NFS1], one site-specific binding fit. Conditions: both partners purified.

For test [2], the target named is T1, NFS1-ISD11-ACP (SDA) complex. Put plainly: BLI; biotinylated ISCU on streptavidin sensors, SDA 10 uM to 1.56 nM in solution; 25 °C; 50 mM HEPES pH 7.5, 200 mM NaCl, 5% glycerol, 2 mM TCEP, 5 mM DTT, 0.5 mg/mL BSA, with 100 uM ZnCl2 (zinc-bound ISCU); Kd from response vs. [NFS1], one site-specific binding fit. Conditions: both partners purified.

T1 sequence (Q9Y697 56-457, chain 1 of 3): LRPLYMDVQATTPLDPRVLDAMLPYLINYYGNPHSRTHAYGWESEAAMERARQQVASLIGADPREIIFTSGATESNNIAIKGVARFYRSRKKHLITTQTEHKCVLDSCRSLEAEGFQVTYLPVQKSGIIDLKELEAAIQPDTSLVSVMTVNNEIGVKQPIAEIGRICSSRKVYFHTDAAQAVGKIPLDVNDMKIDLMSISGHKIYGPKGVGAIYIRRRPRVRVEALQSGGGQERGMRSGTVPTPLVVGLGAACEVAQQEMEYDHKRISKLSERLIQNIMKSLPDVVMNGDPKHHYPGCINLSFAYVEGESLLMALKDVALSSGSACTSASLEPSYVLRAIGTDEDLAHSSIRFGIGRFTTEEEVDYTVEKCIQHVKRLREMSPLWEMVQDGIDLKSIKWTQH
T1 sequence (Q9HD34 whole entry, chain 2 of 3): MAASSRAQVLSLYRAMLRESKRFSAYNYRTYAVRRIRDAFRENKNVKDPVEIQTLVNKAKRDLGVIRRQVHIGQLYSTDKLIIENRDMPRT
T1 sequence (P0A6A8 whole entry, chain 3 of 3): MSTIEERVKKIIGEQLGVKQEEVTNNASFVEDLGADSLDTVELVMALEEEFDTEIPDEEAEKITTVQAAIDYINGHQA

B1: biotinylated human ISCU wild-type (Δ1-34) (natural protein, UniProt Q9H1K1 35-167, looked up)
chain: YHKKVVDHYENPRNVGSLDKTSKNVGTGLVGAPACGDVMKLQIQVDEKGKIVDARFKTFGCGSAIASSSLATEWVKGKTVEEALTIKNTDIAKELCLPPVKLHCSMLAEDAIKAALADYKLKQEPKKGEAEKK
modifications: biotin (site not stated)
notes: human ISCU, construct Δ1-34 of the 167-aa precursor (133-aa mature protein without the mitochondrial signal peptide); the two conditions are two assays; Measured mass of the apo-protein 14604 Da; also called ISCUWT; WT; source: E. coli BL21 (DE3)-R3-pRARE2, purified (Ni Sepharose, Superdex S75, His-tag removed by TEV)
Usually Kd stands for a measure of binding affinity in units of concentration. High values mean weaker binding, low ones tighter binding. As for B1, the values for the Kd in test [1] and in test [2] were 87.8 nM and 160 nM, respectively.

B2: biotinylated human ISCU M140V (Δ1-34) (natural protein, UniProt Q9H1K1 35-167, looked up)
chain: YHKKVVDHYENPRNVGSLDKTSKNVGTGLVGAPACGDVMKLQIQVDEKGKIVDARFKTFGCGSAIASSSLATEWVKGKTVEEALTIKNTDIAKELCLPPVKLHCSVLAEDAIKAALADYKLKQEPKKGEAEKK
modifications: biotin (site not stated)
notes: human ISCU, construct Δ1-34 of the 167-aa precursor, variant M140V; source: E. coli BL21 (DE3)-R3-pRARE2, purified (Ni Sepharose, Superdex S75, His-tag removed by TEV)
As to B2, the Kd in test [1] came to 85.5 nM; in test [2], 218 nM.

B3: biotinylated human ISCU M140L (Δ1-34) (natural protein, UniProt Q9H1K1 35-167, looked up)
chain: YHKKVVDHYENPRNVGSLDKTSKNVGTGLVGAPACGDVMKLQIQVDEKGKIVDARFKTFGCGSAIASSSLATEWVKGKTVEEALTIKNTDIAKELCLPPVKLHCSLLAEDAIKAALADYKLKQEPKKGEAEKK
modifications: biotin (site not stated)
notes: human ISCU, construct Δ1-34 of the 167-aa precursor, variant M140L; source: E. coli BL21 (DE3)-R3-pRARE2, purified (Ni Sepharose, Superdex S75, His-tag removed by TEV)
For B3, the Kd in test [1] was determined as 110 nM; in test [2], 181 nM.

B4: biotinylated human ISCU M140I (Δ1-34) (natural protein, UniProt Q9H1K1 35-167, looked up)
chain: YHKKVVDHYENPRNVGSLDKTSKNVGTGLVGAPACGDVMKLQIQVDEKGKIVDARFKTFGCGSAIASSSLATEWVKGKTVEEALTIKNTDIAKELCLPPVKLHCSILAEDAIKAALADYKLKQEPKKGEAEKK
modifications: biotin (site not stated)
notes: human ISCU, construct Δ1-34 of the 167-aa precursor, variant M140I; source: E. coli BL21 (DE3)-R3-pRARE2, purified (Ni Sepharose, Superdex S75, His-tag removed by TEV)
For B4, the Kd came out at 97.3 nM in test [1] and 194 nM in test [2].
